Laboratory results: paper PMC4837377 (Scientific Reports, 2016)

B1: PA-PB1-PB2(1-116) truncated heterotrimer (construct 15) (complex)
chain 1: […]
chain 2: MDVNPTLLFLKVPAQNAISTTFPYTGDPPYSHGTGTGYTMDTVNRTHQYSEKGKWTTNTETGAAQLNPIDGPLPEDNEPSGYAQTDCVLEAMAFLEESHPGIFENSCLETMEVVQQTRVDRLTQGRQTYDWTLNRNQPAATALANTIEVFRSNGLIANESGRLIDFLKDVIESMDKEEMEITTHFQRKRRVRDNMTKKMVTQRTIGKKKQRVNKRSYLIRALTLNTMTKDAERGKLKRRAIATPGMQIRGFVYFVETLARSICEKLEQSGLPVGGNEKKAKLANVVRKMMTNSQDTELSFTITGDNTKWNENQNPRMFLAMITYITKNQPEWFRNILSIAPIMFSNKMARLGKGYMFESKRMKLRTQIPAEMLASIDLKYFNESTRKKIEKIRPLLIDGTASLSPGMMMGMFNMLSTVLGVSILNLGQKKYTKTTYWWDGLQSSDDFALIVNAPNHEGIQAGVDRFYRTCKLVGINMSKKKSYINRTGTFEFTSFFYRYGFVANFSMELPSFGVSGINESADMSIGVTVIKNNMINNDLGPATAQMALQLFIKDYRYTYRCHRGDTQIQTRRSFELKKLWEQTRSKAGLLVSDGGPNLYNIRNLHIPEVCLKWELMDEDYQGRLCNPLNPFVSHKEIESVNNAVVMPAHGPAKSMEYDAVATTHSWIPKRNRSILNTSQRGILEDEQMYQKCCNLFEKFFPSSSYRRPVGISSMVEAMVSRARIDARIDFESGRIKKEEFSEIMKICSTIEELRRQK
chain 3: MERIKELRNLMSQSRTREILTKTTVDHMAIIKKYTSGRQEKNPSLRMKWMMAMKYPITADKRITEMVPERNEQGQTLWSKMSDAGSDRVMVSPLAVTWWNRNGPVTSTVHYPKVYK
notes: copies: + +
B2: PA-PB1-PB2(1-250) truncated heterotrimer (construct 16) (complex)
chain 1: […]
chain 2: B1 chain 2
chain 3: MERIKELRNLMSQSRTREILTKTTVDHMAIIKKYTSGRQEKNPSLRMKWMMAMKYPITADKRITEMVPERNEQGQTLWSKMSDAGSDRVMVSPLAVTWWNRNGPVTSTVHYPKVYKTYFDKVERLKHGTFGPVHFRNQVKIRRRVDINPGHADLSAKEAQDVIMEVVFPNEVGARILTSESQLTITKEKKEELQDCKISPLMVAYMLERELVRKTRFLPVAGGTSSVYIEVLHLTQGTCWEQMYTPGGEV
notes: copies: + +

Target: the molecule itself
Experiment: SEC-MALS

| Protein | stoichiometry N |
| --- | --- |
| B1 | 2 |
| B2 | 2 |
